Test results from PMC5038328, “IMP-27, a Unique Metallo-β-Lactamase Identified in Geographically Distinct Isolates of Proteus mirabilis” (Antimicrobial Agents and Chemotherapy, 2016).

What was measured:
[1] = test system: C[C@@H](O)[C@H]1C(=O)N2C(C(=O)O)=C(SCCN=CN)C[C@H]12; experiment: competition with nitrocefin hydrolysis, spectrophotometric; format: biochemical, Proteus mirabilis; conditions: Km measured as Ki with nitrocefin as reporter substrate
Source text: (§1) competition with nitrocefin hydrolysis, spectrophotometric on IMP-27

[2] = test system: C[C@@H](O)[C@H]1C(=O)N2C(C(=O)O)=C(S[C@@H]3CN[C@H](C(=O)N(C)C)C3)[C@H](C)[C@H]12; experiment: as above; format: biochemical, Proteus mirabilis; conditions: Km measured as Ki with nitrocefin as reporter substrate
Source text: as §1

[3] = test system: CC(C)(O/N=C(\C(=O)N[C@@H]1C(=O)N2C(C(=O)[O-])=C(C[n+]3ccccc3)CS[C@H]12)c1csc(N)n1)C(=O)O; experiment: spectrophotometric initial hydrolysis rates; format: biochemical, Proteus mirabilis
Source text: (§2) spectrophotometric initial hydrolysis rates on IMP-27

[4] = test system: CO/N=C(\C(=O)N[C@@H]1C(=O)N2C(C(=O)O)=C(COC(C)=O)CS[C@H]12)c1csc(N)n1; experiment: spectrophotometric initial hydrolysis rates; format: biochemical, Proteus mirabilis
Source text: as §2

[5] = test system: CO/N=C(\C(=O)N[C@@H]1C(=O)N2C(C(=O)[O-])=C(C[N+]3(C)CCCC3)CS[C@H]12)c1csc(N)n1; experiment: spectrophotometric initial hydrolysis rates; format: biochemical, Proteus mirabilis
Source text: as §2

[6] = test system: O=C(Cc1cccs1)N[C@@H]1C(=O)N2C(C(=O)O)=C(/C=C/c3ccc([N+](=O)[O-])cc3[N+](=O)[O-])CS[C@H]12; experiment: spectrophotometric initial hydrolysis rates; format: biochemical, Proteus mirabilis
Source text: as §2

IMP-27 [7] = biological target: T1, IMP-27 (Proteus mirabilis, UniProt F8UQX1); experiment: inhibition of nitrocefin hydrolysis, spectrophotometric initial rates; format: biochemical
T1 construct: gene PCR amplified from 2009 isolate DNA, pET-9a, E. coli BL21(DE3)/pLysS; KF501391 is the class 2 integron record
T1 sequence (F8UQX1 entry or part of it): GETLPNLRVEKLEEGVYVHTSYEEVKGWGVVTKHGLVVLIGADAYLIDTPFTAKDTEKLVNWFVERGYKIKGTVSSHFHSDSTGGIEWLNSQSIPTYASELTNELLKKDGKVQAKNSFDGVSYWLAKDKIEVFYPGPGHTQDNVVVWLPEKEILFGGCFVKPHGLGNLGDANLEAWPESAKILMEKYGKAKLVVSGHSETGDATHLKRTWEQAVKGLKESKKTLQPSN

IMP-27 [8] = biological target: T1, IMP-27; experiment: spectrophotometric initial rates; format: biochemical
Source text: spectrophotometric initial rates on IMP-27

Compound: IMP-27 (Proteus mirabilis)
- Km [1]: 310 ± 19 µM
- kcat [1]: 34 ± 0.38 s⁻¹
- kcat/Km [1]: 110000 M⁻¹ s⁻¹
- Km [2]: 2.3 ± 0.8 µM
- kcat [2]: 3.4 ± 0.53 s⁻¹
- kcat/Km [2]: 1.5e+06 M⁻¹ s⁻¹
- Km [3]: 54 ± 4.3 µM
- kcat [3]: 0.7 ± 0.03 s⁻¹
- kcat/Km [3]: 13000 M⁻¹ s⁻¹
- Km [4]: 24 ± 1.9 µM
- kcat [4]: 20 ± 0.66 s⁻¹
- kcat/Km [4]: 860000 M⁻¹ s⁻¹
- Km [5]: 53 ± 3.6 µM
- kcat [5]: 8.1 ± 0.37 s⁻¹
- kcat/Km [5]: 150000 M⁻¹ s⁻¹
- Km [6]: 36 ± 3.1 µM
- kcat [6]: 370 ± 15 s⁻¹
- kcat/Km [6]: 1e+07 M⁻¹ s⁻¹

Compound: CCN1CCN(C(=O)N[C@@H](C(=O)N[C@@H]2C(=O)N3[C@@H]2SC(C)(C)[C@@H]3C(=O)O)c2ccccc2)C(=O)C1=O [piperacillin]
- Ki (IMP-27 [7]; read-out: IMP-27 / Km or Ki): 3 mM

Compound: O=C(O)c1cccc(C(=O)O)n1 [dipicolinic acid]
- Ki (IMP-27 [7]; read-out: Ki): 4.6 ± 0.13 mM

Compound: O=C(O)CN(CCN(CC(=O)O)CC(=O)O)CC(=O)O [EDTA]
- Ki (IMP-27 [7]; read-out: Ki): 11 ± 0.9 mM

Compound: C[C@H]1[C@H](NC(=O)/C(=N\OC(C)(C)C(=O)O)c2csc(N)n2)C(=O)N1S(=O)(=O)O [aztreonam]
- Ki (IMP-27 [8]): > 23 mM
